Results on 8 molecules are retold here after publication doi:10.1101/2022.06.21.497044 (bioRxiv, 2022).

The target in one data set is T1, BBX30 (miP1b) (Arabidopsis thaliana, UniProt Q1G3I2 1-117).
T1 sequence: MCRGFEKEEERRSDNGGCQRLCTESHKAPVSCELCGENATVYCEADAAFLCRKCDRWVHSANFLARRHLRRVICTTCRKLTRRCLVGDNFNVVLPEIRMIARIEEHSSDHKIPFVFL
The experiment in a line: EMSA.

The target of another data set is T2, BBX31 (miP1a) (Arabidopsis thaliana, UniProt Q9LRM4 1-121).
T2 sequence: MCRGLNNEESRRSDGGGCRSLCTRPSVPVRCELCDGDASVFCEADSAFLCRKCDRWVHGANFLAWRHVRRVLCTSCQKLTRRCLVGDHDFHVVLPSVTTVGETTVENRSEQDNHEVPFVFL
The experiment in a line: EMSA.

Data set [1] deals with T3, GST-ABI5 (Arabidopsis thaliana, UniProt Q9SJN0 1-442).
T3 sequence: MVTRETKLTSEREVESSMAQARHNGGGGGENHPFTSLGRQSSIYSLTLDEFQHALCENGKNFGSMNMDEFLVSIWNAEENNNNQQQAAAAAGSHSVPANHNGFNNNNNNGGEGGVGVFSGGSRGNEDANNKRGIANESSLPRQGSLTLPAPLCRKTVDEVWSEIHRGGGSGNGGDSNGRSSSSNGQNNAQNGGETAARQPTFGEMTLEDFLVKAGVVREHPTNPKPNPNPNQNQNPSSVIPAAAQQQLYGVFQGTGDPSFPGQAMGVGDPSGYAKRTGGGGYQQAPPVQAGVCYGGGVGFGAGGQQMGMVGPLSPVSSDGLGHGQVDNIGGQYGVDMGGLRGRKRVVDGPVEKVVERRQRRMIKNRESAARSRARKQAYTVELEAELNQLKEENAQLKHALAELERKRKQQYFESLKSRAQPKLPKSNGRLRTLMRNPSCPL
The experiment in a line: EMSA.

Data set [2] has as its target T4, GST-ABI5 (Arabidopsis thaliana, UniProt Q9SJN0 1-442).
T4 sequence: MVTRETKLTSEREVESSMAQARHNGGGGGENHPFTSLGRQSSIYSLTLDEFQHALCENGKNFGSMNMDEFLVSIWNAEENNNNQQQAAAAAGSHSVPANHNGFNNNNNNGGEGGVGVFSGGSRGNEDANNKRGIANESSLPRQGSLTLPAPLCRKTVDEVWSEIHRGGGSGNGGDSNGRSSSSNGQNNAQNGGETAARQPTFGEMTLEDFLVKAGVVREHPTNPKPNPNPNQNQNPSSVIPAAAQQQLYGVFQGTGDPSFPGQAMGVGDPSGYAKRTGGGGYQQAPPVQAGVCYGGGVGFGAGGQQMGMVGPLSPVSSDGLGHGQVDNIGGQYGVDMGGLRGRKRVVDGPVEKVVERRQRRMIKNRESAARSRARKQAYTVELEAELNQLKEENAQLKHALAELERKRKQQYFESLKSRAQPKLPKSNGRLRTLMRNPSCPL
Description: pull-down.

B1: EM6 promoter probe (dsDNA)
DNA 1: AATAAAGTCAGACACGTGGCATGTCACCAA
DNA 2: TTGGTGACATGCCACGTGTCTGACTTTATT
As to B1, the binding result in the data set with BBX30 (miP1b) and in the data set with BBX31 (miP1a) was “no binding” each time.

B2: BBX31 promoter probe (dsDNA)
DNA 1: AAATAACAGGGCAAGATTCATCCACGTGTCCAACAACAACACAACACAAA
DNA 2: TTTGTGTTGTGTTGTTGTTGGACACGTGGATGAATCTTGCCCTGTTATTT
As to B2, the binding result with GST-ABI5 [1] is listed as “binds”.

B3: mutBBX31 probe (dsDNA)
DNA 1: AAATAACAGGGCAAGATTCATCACCGGGTCCAACAACAACACAACACAAA
DNA 2: TTTGTGTTGTGTTGTTGTTGGACCCGGTGATGAATCTTGCCCTGTTATTT
For the molecule B3, in the data set with GST-ABI5 [1], the binding result is on record as “no binding”.

B4: ABI5 promoter probe (dsDNA)
DNA 1: GCAAGAAACAGAAGAGAGACACGTGCAGGACACGTGTCGTCCGCAGCCGAACGGA
DNA 2: TCCGTTCGGCTGCGGACGACACGTGTCCTGCACGTGTCTCTCTTCTGTTTCTTGC
B4: the binding result with BBX30 (miP1b) and with BBX31 (miP1a) was “no binding” in each case.

B5: His-BBX31 (natural protein)
chain: MCRGLNNEESRRSDGGGCRSLCTRPSVPVRCELCDGDASVFCEADSAFLCRKCDRWVHGANFLAWRHVRRVLCTSCQKLTRRCLVGDHDFHVVLPSVTTVGETTVENRSEQDNHEVPFVFL
Regarding B5, the binding result with GST-ABI5 [2] is “binds”.

B6: BBX30 promoter probe (dsDNA)
DNA 1: GTCAATATTTTTCCACGTGTACAACCAGTTTA
DNA 2: TAAACTGGTTGTACACGTGGAAAAATATTGAC
Regarding B6, the binding result with GST-ABI5 [1] was “binds”.

B7: mutBBX30 probe (dsDNA)
DNA 1: GTCAATATTTTTCCAAAAATACAACCAGTTTA
DNA 2: TAAACTGGTTGTATTTTTGGAAAAATATTGAC
For B7, the binding result in the data set with GST-ABI5 [1] was “no binding”.

B8: His-BBX30 (natural protein)
chain: MCRGFEKEEERRSDNGGCQRLCTESHKAPVSCELCGENATVYCEADAAFLCRKCDRWVHSANFLARRHLRRVICTTCRKLTRRCLVGDNFNVVLPEIRMIARIEEHSSDHKIPFVFL
With B8, the binding result with GST-ABI5 [2] is listed as “binds”.
